# Measurements reported in PMC7495412.
# Legend:
# Assay in all cases: co-IP
# [1] = molecular target: α-eGFP (hybrid mouse α-adaptin with eGFP inserted into the hinge region) (mouse) (UniProt P17427)
# [2] = molecular target: μ2-eGFP (rat AP2M1 with internal HA tag and eGFP) (rat) (UniProt P84092)
# [3] = molecular target: σ2-eGFP (AP2S1 with C-terminal eGFP) (UniProt P62744)
# Sequence of UniProt P62744 (P62744 whole entry): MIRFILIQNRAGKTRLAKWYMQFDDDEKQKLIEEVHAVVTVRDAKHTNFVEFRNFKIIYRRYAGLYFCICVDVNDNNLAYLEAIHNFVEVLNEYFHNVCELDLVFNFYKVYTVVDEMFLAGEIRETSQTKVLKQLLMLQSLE
# Sequence of UniProt P84092 (P84092 whole entry): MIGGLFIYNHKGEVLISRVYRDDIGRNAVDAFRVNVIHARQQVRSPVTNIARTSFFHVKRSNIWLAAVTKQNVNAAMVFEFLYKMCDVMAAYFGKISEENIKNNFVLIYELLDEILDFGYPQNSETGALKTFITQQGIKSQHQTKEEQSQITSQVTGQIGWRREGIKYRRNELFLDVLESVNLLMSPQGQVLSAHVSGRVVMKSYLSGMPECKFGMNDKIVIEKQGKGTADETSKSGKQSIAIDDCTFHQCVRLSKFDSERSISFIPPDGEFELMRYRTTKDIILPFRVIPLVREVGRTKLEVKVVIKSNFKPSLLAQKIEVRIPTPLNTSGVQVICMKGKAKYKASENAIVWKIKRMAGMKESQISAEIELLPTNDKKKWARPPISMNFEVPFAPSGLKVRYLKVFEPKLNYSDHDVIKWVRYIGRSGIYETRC
percent of the endogenous subunit pulled down [1],percent of the endogenous subunit pulled down [2],percent of the endogenous subunit pulled down [3],Substance
78.8%,68%,–,endogenous σ2 subunit of AP2 (from UniProt P53680 1-142) (natural protein)
99.3%,–,79.5%,endogenous μ2 subunit of AP2 (from UniProt Q96CW1 1-435) (natural protein)
–,94.1%,98.7%,endogenous α subunit of AP2 (α-adaptin) (from UniProt O94973 1-939) (natural protein)
